Tests used:
[1] = target: T1, human C1s (human, UniProt P09871 16-688); assay: SPR, Ab captured; pH 5.8, 1.2 mM Ca
T1 construct: also called hC1s; serum-derived human C1s (CompTech)
T1 sequence: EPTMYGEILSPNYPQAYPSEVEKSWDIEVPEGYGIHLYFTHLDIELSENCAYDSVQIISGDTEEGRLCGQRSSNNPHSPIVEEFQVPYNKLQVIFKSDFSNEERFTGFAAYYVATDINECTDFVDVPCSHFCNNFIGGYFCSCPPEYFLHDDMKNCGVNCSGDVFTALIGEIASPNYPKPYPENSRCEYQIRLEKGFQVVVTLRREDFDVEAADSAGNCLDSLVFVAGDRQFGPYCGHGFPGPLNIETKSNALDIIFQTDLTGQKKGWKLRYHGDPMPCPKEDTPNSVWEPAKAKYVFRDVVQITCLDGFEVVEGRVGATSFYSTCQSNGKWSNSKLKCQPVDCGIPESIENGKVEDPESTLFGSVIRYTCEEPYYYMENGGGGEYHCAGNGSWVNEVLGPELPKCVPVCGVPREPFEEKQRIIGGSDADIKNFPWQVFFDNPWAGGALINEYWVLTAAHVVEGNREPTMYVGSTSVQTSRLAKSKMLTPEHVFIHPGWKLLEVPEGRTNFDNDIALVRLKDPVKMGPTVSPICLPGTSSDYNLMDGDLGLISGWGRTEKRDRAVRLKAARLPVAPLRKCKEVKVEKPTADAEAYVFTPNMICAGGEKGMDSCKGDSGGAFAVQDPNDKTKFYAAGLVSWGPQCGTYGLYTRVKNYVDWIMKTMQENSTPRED
Description: (§1) All variants were transiently expressed and purified by the method described above. The binding affinity of each histidine-substituted variant at pH 7.4 and pH 5.8 was determined at 37 degrees C. using Biacore T200 instrument (GE Healthcare). Recombinant Protein A/G (Pierce) was immobilized onto all flow cells of a CM4 sensor chip using an amine coupling kit (GE Healthcare). Antibodies and analytes were prepared in 7(+) buffer (20 mM ACES, 150 mM NaCl, 1.2 mM CaCl2, 0.05% Tween 20, 0.005% NaN3, pH 7.4), 5(+) buffer (20 mM ACES, 150 mM NaCl, 1.2 mM CaCl2, 0.05% Tween 20, 0.005% NaN3, pH 5.8), or 5(−) buffer (20 mM ACES, 150 mM NaCl, 3 micro M CaCl2, 0.05% Tween 20, 0.005% NaN3, pH 5.8). Each antibody was captured onto the sensor surface by protein A/G. Antibody capture levels were aimed at 200 resonance unit (RU). Serum-derived human C1s (CompTech) or recombinant C1s prepared in EXAMPLE 1 was injected at 50 nM, followed by dissociation. The sensor surface was regenerated in each cycle with 10 mM Glycine-HCl, pH 1.5. […] The ratio of KD 5.8+ to KD 7.4+(“KD 5+/7+”) and that of KD 5.8− to KD 7.4+(“KD 5−/7+”) were calculated. When the KD 5+/7+ or KD 5−/7+ of a variant is larger than that of the parent antibody IPN009VH2-SG4GK/IPN009VK3-SK1, that variant is considered to be “pH”- or “pH and Ca”-dependent, respectively. When binding response in 5(+) buffer and/or in 5(−) buffer of a variant is much lower than that of IPN09VH2/IPN009VK3, that variant is also considered as “pH”- and/or “pH and Ca”-dependent. Therefore, such mutations are effective to generate “pH”- and/or “pH and Ca”-dependent antibody. To further enhance “pH” and/or “pH and Ca” dependency, a combination of histidine mutations was conducted. Antibodies with combinations of histidine mutations were evaluated using Biacore by the method described above.

[2] = target: T1, human C1s; assay: SPR, Ab captured; pH 7.4, 1.2 mM Ca
Description: as §1

[3] = target: T1, human C1s; assay: SPR, Ab captured; pH 5.8, 3 uM Ca
Description: as §1

[4] = target: T1, human C1s; assay: SPR; KD pH 5.8 3 uM Ca / KD pH 7.4 1.2 mM Ca
Description: as §1

[5] = target: T1, human C1s; assay: SPR; KD pH 5.8 1.2 mM Ca / KD pH 7.4 1.2 mM Ca
Description: as §1

Binder	Kd [1] [nM]	koff [1] [s⁻¹]	kon [1] [M⁻¹ s⁻¹]	Kd [2] [nM]	koff [2] [s⁻¹]	kon [2] [M⁻¹ s⁻¹]	Kd [3] [nM]	KD 5(-)/7(+) [4]	KD 5(+)/7(+) [5]	koff [3] [s⁻¹]	kon [3] [M⁻¹ s⁻¹]
C1_IPN92H0038-SG4GK/IPN93L0024-SK1 (antibody, human IgG4 S228P, kappa, name in Kabat numbering, also called IPN92H0038/IPN93L0024) heavy: not shown light: QIVLTQSPATLSLSPGERATLSCTASSSVSSSYLHWYQQKPGKAPKLWIYSTSNLASGVPSRFSGSGSGTDYTLTISSLQPEDFATYYCHQYYRLHPITFGQGTKLEIKRTVAAPSVFIFPPSDEQLKSGTASVVCLLNNFYPREAKVQWKVDNALQSGNSQESVTEQDSKDSTYSLSSTLTLSKADYEKHKVYACEVTHQGLSSPVTKSFNRGEC	8.19	0.00418	511000	1.57	0.000596	380000	5.47	3.5	5.2	–	–
C1_IPN92H0038-SG4GK/IPN93L0028-SK1 (antibody, human IgG4 S228P, kappa, name in Kabat numbering, V domains shown, also called IPN92H0038/IPN93L0028) VH: EVMLVESGGGLVKPGGSLRLSCAASGFTFSNYAMSWVRQAPGKGLEWVATISSGGSHTYYLDSVKHRFTISRDNSKDTLYLQMNSLRAEDTALYYCARLFTGHAMDYWGQGTLVTVSS VL: QIVLTQSPATLSLSPGERATLSCTASSSVSSSYLHWYQQKPGKAPKLWIYSTSNLASGVPSRFSGSGSGTDYTLTISSLQPEDFATYYCHQYHRHPPITFGQGTKLEIKR	17.7	0.00789	445000	2.36	0.00125	528000	27.3	11.6	7.5	0.0174	637000
C1_IPN92H0038-SG4GK/IPN93L0029-SK1 (antibody, human IgG4 S228P, kappa, name in Kabat numbering, V domains shown, also called IPN92H0038/IPN93L0029) VH: EVMLVESGGGLVKPGGSLRLSCAASGFTFSNYAMSWVRQAPGKGLEWVATISSGGSHTYYLDSVKHRFTISRDNSKDTLYLQMNSLRAEDTALYYCARLFTGHAMDYWGQGTLVTVSS VL: QIVLTQSPATLSLSPGERATLSCTASSSVSSSYLHWYQQKPGKAPKLWIYSTSNLASGVPSRFSGSGSGTDYTLTISSLQPEDFATYYCHQYHRLHPITFGQGTKLEIKR	24.2	0.0131	539000	7.15	0.003	419000	6.62	0.9	3.4	0.00522	789000

Further lines, results first:

Kd [1] [nM]	koff [1] [s⁻¹]	kon [1] [M⁻¹ s⁻¹]	Kd [2] [nM]	koff [2] [s⁻¹]	kon [2] [M⁻¹ s⁻¹]	Kd [3] [nM]	KD 5(-)/7(+) [4]	KD 5(+)/7(+) [5]	koff [3] [s⁻¹]	kon [3] [M⁻¹ s⁻¹]	Binder
70.3	0.017	241000	19.9	0.0111	558000	599	30.1	3.5	0.00538	8980	C1_IPN92H0038-SG4GK/IPN93L0030-SK1 (antibody, human IgG4 S228P, kappa, name in Kabat numbering, V domains shown, also called IPN92H0038/IPN93L0030) VH: EVMLVESGGGLVKPGGSLRLSCAASGFTFSNYAMSWVRQAPGKGLEWVATISSGGSHTYYLDSVKHRFTISRDNSKDTLYLQMNSLRAEDTALYYCARLFTGHAMDYWGQGTLVTVSS VL: QIVLTQSPATLSLSPGERATLSCTASSSVSSSYLHWYQQKPGKAPKLWIYSTSNLASGVPSRFSGSGSGTDYTLTISSLQPEDFATYYCHQYYRHHPITFGQGTKLEIKR
1.24	0.00146	1.18e+06	5.22	0.0396	7.59e+06	3.9	0.7	0.2	0.00476	1.22e+06	C1_IPN92H0038-SG4GK/IPN93L0031-SK1 (antibody, human IgG4 S228P, kappa, name in Kabat numbering, V domains shown, also called IPN92H0038/IPN93L0031) VH: EVMLVESGGGLVKPGGSLRLSCAASGFTFSNYAMSWVRQAPGKGLEWVATISSGGSHTYYLDSVKHRFTISRDNSKDTLYLQMNSLRAEDTALYYCARLFTGHAMDYWGQGTLVTVSS VL: QIVLTQSPATLSLSPGERATLSCTASSSVSSSYLHWYQQKPGKAPKLWIYSTSNLASGVPSRFSGSGSGTDYTLTISSLQPEDFATYYCHQYHRHHPITFGQGTKLEIKR
